From the DeepSol protein solubility set

experiment: soluble on expression in E. coli; label from the status in PepcDB or PDB records

Question: Which “soluble on expression in E. coli” value does the source give for “MPSPSPKGLPVKQYAVQSQLPVYEWPDVGSGEYDVGVVASFGRLLNEALILKFPYGILNVHPSCLPRWRGPAPVIHTVLHGDTVTGVTIMQIRPKRFDVGPILKQETVPVPPKSTAKELEAVLSRLGANMLISVLKNLPESLSNGRQQPMEGATYAPKISAGTSCIKWEEQTSEQIFRLYRAIGNIIPLQTLWMANTIKLLDLVEVNSSVLADPKLTGQALIPGSVIYHKQSQILLVYCKDGWIGVRSVMLKKSLTATDFYNGYLHPWYQKNSQAQPSQCRFQTLRLPTKKKQKKTVAMQQCIE” here?
Answer: soluble

Question: Which “soluble on expression in E. coli” value does the source give for “MAGSDPAAPAAPAAAAPDTVKILIAGGFGVGKTTMVGSVSEIAPLRTEEPLTAAGLDVDDLDGIAEKDATTVALDFGRITIGSELVLYLFGTPGQQRFWFMWNDLAIGALGAVVLIDVRRPESSFAAVDFFERRGIPFVIGVNGFHGLHPYTPEEIREALALPERAQVLLCDARERESCRDVLIALIDQLIAARLEHHHHHH” here?
Answer: not soluble

Question: For “MLSKNLLEALNDQMNHEYFAAHAYMAMAAYCDKESYEGFANFFIQQAKEERFHGQKIYNYINDRGAHAEFRAVSAPKIDFSSILETFKDSLSQEQEVTRRFYNLSEIARQDKDYATISFLNWFLDEQVEEESMFETHINYLTRIGDDSNALYLYEKELGARTFDEE”, which “soluble on expression in E. coli” value is on record?
Answer: not soluble

Question: Which “soluble on expression in E. coli” value does the source give for “RLADRMSQEGWEDPGSSSAQAAAIEHDTFGRDNDGDVILLFTAKDGIAHSPSFDKIKKYLDSLKTDHSDHVDAVTSYFDKRNAQLISKDGTTAFAAVSLRGDGEQTLKDFRAIESDLHPQFPEVTVQVAGSTAVADALDKGMSGDIKRAE” here?
Answer: not soluble

Question: For “MITMLERVPTGIPGFDELCSGGLLRDRSYLVSGPSGSGKTIFAMQYLVNGIEKYNEPGVFVATEERPQHLREHFLTFGWDLEKYEDENMLAIVDATSTKIGLPSDERYIDVRPFDTRSLLDQIITIQDEIGARRAVVDSTTSIGFTISDPAKFRVELLKISTTMEILGLTSILTCEVVEGGGDKISRFGVENFVVEGTIVLYYTRIENTRVRSIEIFKMRGTNHSSKIHPFEITENGIVVYSKEEVFA”, which “soluble on expression in E. coli” value is on record?
Answer: not soluble

Question: With “MSLKILLLEDEVMLNESICEYLDSEGHHVESFFNGLAALEAIKENSYDLLVLDINVPGIDGLSFLEKIHELKIHVSVIYISALVDIEDISRAYTLGCHDYLKKPFHLKELSLRVDRIKLSSVVPRVHLRLCKNYSYDQENSTLLFNQEVQILTKRQAQIIDLLSRNRGRIVDFEQFQTYVWSEQIVDNATIRAEINRLKKNLKEDFVINVRGMGYMIDKEGHHHHHH” as the sequence, how does the “soluble on expression in E. coli” value read?
Answer: not soluble

Question: For “MIKNRQEILFLYDVTDANPNGDPLDENKPRIDEETGINIVTDVRLKRTIRDYLYDYKGFDGSNGKDIFVREIESEKGGIKDGKARAKDFNENVDEILQKAIDIRLFGGVIPLDKASITFTGPVQFNMGRSLNKVNLKHIKGTGAFASGEGKAQKTFREEYIVPYSIIAFHGIINENAAKRTGLTDEDVDLLDDAMWNGTKNLITRSKMGHMPRLMLRVVYKPGENFFIGDLQNRISLNFDVEEEKIRSIKDFSIKLDELIDELANYGDKIEKVVFVADKNLRLSYKGREINLKDIKDIRFEEKTF”, which “soluble on expression in E. coli” value is on record?
Answer: soluble

Question: Which “soluble on expression in E. coli” value does the source give for “MSNCEIIAVHGGACAKFDASLAEDCRFACGTGTVENALTDLERIEKFNCGFGSHLTIDQEVECEASYMSSKNLSFGAVGAISNVFHPSRVARHLAHSNWWKQRRLLHPLILVGRGAEKYAVKNDFPTCTPEELVSKAAKESFEKYLHRMLHPYDTHDTVGAISINTNTMNSESGTSSGGIVLKHSGRLGHSCVYGSGTWSERRQYEEPFDQVSERTISICSTGHGESLVKADFCRGIATRVLDDEEGIMYSEIIREFIHEKMEHGSRYGGIALIADKFKDRMSLEFLIFHNCRYLPAAVRCRDNQIRVFESQFDPDQCTTDPKCVIESFIM” here?
Answer: not soluble

Question: Which “soluble on expression in E. coli” value does the source give for “MMTTIVMESTTEKVCEASSDACPKLETMFDATPQIVEIDGCQDITCPGNAVPYLVATFPASEIEPFYPMDVVNPFNVIPPSTISGSVIDYYGKICDGGVWKFTKYPDGIHVNDSDTIMGEDGSLTGKKSTLLVVTWYGFC” here?
Answer: not soluble

Question: Which “soluble on expression in E. coli” value does the source give for “MGSDKIHHHHHHMSQDDHSRDSAGLTYVYPVVSRRAGGVSIGINLNPNNACNWRCIYCQVPDLKRGTAPVIDLVRLEQELRDFLHELVYGNFMQEKVPPETRVIKDIALSGNGEPTSAREFEQIIEIIGRVKADFPLPEELKLVLITNGSLINRMYVQKGLHLMAGLNGEVWFKLDSVTQTGRLRINNTRASLQRMRDNLQTAASLCPTWLQTCVFKLKGVHPDTHETDAYIGFIRTLLQEGTQIRGVLLYTLARPALQPEAPDLSKADPDWIKTFADKIRALGIPVRTAF” here?
Answer: not soluble

Question: For “MAQMTMVQAINDALKTELKNDQDVLIFGEDVGVNGGVFRVTEGLQKEFGEDRVFDTPLAESGIGGLAMGLAVEGFRPVMEVQFLGFVFEVFDAIAGQIARTRFRSGGTKTAPVTIRGPFGGGVHTPELHADNLEGILAQSPGLKVVIPSGPYDAKGLLISSIRSNDPVVYLEHMKLYRSFREEVPEEEYTIDIGKANVKKEGNDISIITYGAMVQESMKAAEELEKDGYSVEVIDLRTVQPIDVDTIVASVEKTGRAVVVQEAQRQAGVGAAVVAELSERAILSLEAPIGRVAAADTIYPFTQAENVWLPNKNDIIEKAKETLEF”, which “soluble on expression in E. coli” value is on record?
Answer: not soluble

Question: Which “soluble on expression in E. coli” value does the source give for “MSLMHTRYFTPSAQWIVQQLWPETLRFAKIEYLYPFKLRLSGVQIASEPTIELQQMDLWLNPYGLLEQQLEIDSVLIDGANLAHGLPNFTLPESVHLNQLALHNIDWADQGIIARGVSLQIKQPVWDSPQQQLPYGKIQLAADQITIDGEAFNQVLVDANYQAQDSTVYGFSFNWRNSPISGQAEQYPQGWSLINVTLSRLNLNLDEWRHHSLWQTIAPSIYHINSLDLLNSQLTLNGVAWENLNLSVEDYDLRHSLWQQQQAYLSLNADSAQWLATQWVEPSAELTLTPQGIELDGHSQVWQGDVQVKGHITETSLNLAQLTITGVKWIAEQPQDLLPFSQPLPAWQNLQIEHLDINNLQMIQTVNRPFWQASGLNADGKNLQWVKESQWGFWQGQLSVTANSASYAGVLSTQGVLNMRSEQGVWQLTRAFLPLERGYVEAHAKWDLTSLSAPWQLSLDADSLPIGPLQSWFKLPFGLEALADISLTAQGIAGDRTMLAHSLDGQLQLNLRQGLLSLRSDNTLIIQPFELDDLAVSADRGRITITPTPLRGPNLNAQLGGSTDLLEPEQGQWQLTIQQAWADQCLGLSWDFQQAELVSQDCRSAPEGHHHHHH” here?
Answer: soluble

Question: For “MGKVYKKVELVGTSEEGLEAAIQAALARARKTLRHLDFFEVKEIRGTIGEAGVKEYQVVLEVGFRLEET”, which “soluble on expression in E. coli” value is on record?
Answer: soluble

Question: Which “soluble on expression in E. coli” value does the source give for “MLSCRDLVIRQGGKVLWQNLTFTISAGERVGIHAPSGTGKTTLGRVLAGWQKPTAGDVLLDGSPLPLHQYCPVQLVPQHPELTFNPWRSAGDAVRDAWQPDPETMRRLHVQPEWLTRRPMQLSGGELARIAILRALDPRTRFLIADEMTAQLDPSIQKAIWVYVLEVCRSRSLGMLVISHQSALLDQVCTRHLQVE” here?
Answer: not soluble

Question: Which “soluble on expression in E. coli” value does the source give for “MTAAADLILYNGDVHVLTDTATPADPAHSAVAIRDGRIVGLSNDYDAAFRADTGTREVDLGGRVVVPGFVDAHTHLAVLGKHGVHADLRGADSPAAATARLAERARETDAGWVLGFGYDDSQWSAALSTADLDAVSEARPVAAIREDMHTATVNGVALAEHGDEMPAADVGEDGRIVEDAVEAVYDATDPDLAGTRPLIEAAQREANERGVTAVHEMVRDSHAPRVYRELDAAGELSVRVRLNYWADHLDAVLETGLVTNHGGGMVTVGGIKTYTDGSLGGRTAKLSEPYADAPGETGQWVVDPSALAALVERADDAGLQVVAHAIGDAAVDAVLDAYEDAGERRHRIEHAELASDDAIERMADLGVVASVQPNFLKWAGSGGLYADRLGTARREASNRFADMLDAGVDVAFGSDCMPLAPLVGVHHAVTAPADAQRLSVTAALRAYTSGGARAGCREDEQGVIREGALADLTVLDASPWEHADAIADEVGVSMTVVDGAVVYDGRLEHHHHHH” here?
Answer: not soluble

Question: With “MQKQKSFDKQTTKGKLYLVPTPIGNLEDMSIRCLNILKEATVIASEDTRNTQKLLNHFEITTPQISLHEHNYKERIPQLITRLLNGETIAQVSDAGMPSISDPGHELVTACLEEELAVIALPGPTAGMTALIASGLLPQPFTFYGFLPRKKKEQKDVLSALKEERPTQIFYESPYRIAKTVATFAEVYGQERPAVICRELTKLHEEYLRGTLGELTEYLAENTLKGECCLLVSGFTGEKETIAAMPAISLKEHVQVLMEEEGRSSKEAIKEVAKLRNVKKQEVYKEYHSI” as the sequence, how does the “soluble on expression in E. coli” value read?
Answer: not soluble

Question: With “MALIELRHVKKEFSGKAGKVTALKDIDLTVESGDIYGIIGYSGAGKSTLVRLLNGLETPTEGEVEIQGQDIALLPNKELRNFRKKIGMIFQHFNLLWSRTVLENIMLPLEIAGVPKQNRKSRAEELIKLVGLEGRETAYPSQLSGGQKQRVGIARALANNPDILLCDEATSALDPQTTDEVLELLLKINQELNLTVVLITHEMHVIRKICNRVAVMEYGEIVEEGKVIDIFKKPQTEIAKRFIQQEADKNIEETELVVEEMLEQYPNGKIVRLLFHGEQAKLPIISHIVQEYQVEVSIIQGNIQQTKQGAVGSLYIQLLGEEQNILAAIEGLRKLRVETEVIGNE” as the sequence, how does the “soluble on expression in E. coli” value read?
Answer: not soluble

Question: For “QPTAPKDFSSGFWDFNDGTTQGFGVNPDSPITAINVENANNALKISNLNSKGSNDLSEGNFWANVRISADIWGQSINIYGDTKLTMDVIAPTPVNVSIAAIPQSSTHGWGNPTRAIRVWTNNFVAQTDGTYKATLTISTNDSPNFNTIATDAADSVVTNMILFVGSNSDNISLDNIKFTK”, which “soluble on expression in E. coli” value is on record?
Answer: soluble

Question: For “KKTVRRILGVVEIGGSGENITKTELFKYDGISDSVVKTGICMWEEDVCQIAGITRDELMDDRINRKKVLKYMVNNNINDIRKVGDVLKQYQENPENVLKNIL”, which “soluble on expression in E. coli” value is on record?
Answer: not soluble

Question: For “MVLIKEFRVVLPCSVQEYQVGQLYSVAEASKNETGGGEGIEVLKNEPYEKDGEKGQYTHKIYHLKSKVPAFVRMIAPEGSLVFHEKAWNAYPYCRTIVTNEYMKDDFFIKIETWHKPDLGTLENVHGLDPNTWKTVEIVHIDIADRSQVEPADYKADEDPALFQSVKTKRGPLGPNWKKELANSPDCPQMCAYKLVTIKFKWWGLQSKVENFIQKQEKRIFTNFHRQLFCWIDKWIDLTMEDIRRMEDETQKELETMRKRGSVRGTSAADV”, which “soluble on expression in E. coli” value is on record?
Answer: soluble

Question: Which “soluble on expression in E. coli” value does the source give for “MGSDKIHHHHHHMNRLKKLAWGELFMLGKQGKVRYVFTSSNTAGGYCSFMPELLAGLQKIFILKGPAGTGKSSFLRLLGQSMAEQGYEVEVWLSALNPLNPEGIYLPQMEAAVVNGSLPITIDPGYPAGRAEIINLEDYRDRKAAAEKGRDILELVQRVEKHHSKAYNILKSVIQTREELRQLSARHLDNSKFNQIFQELEARLAEEEVRERHYFANAVTADGIISYIEELSTPCRKRYIFKGPEGCGKSTMIAELARKAAEKGQFLEYYHSGLEPERLLMVIISSSQTALIDIGEMEINLKPCDLLVDLGKCLSDYDCSLLGMKNSQVYRNHEAMLLQVQDELENACLAVKKIKKINASFMDYDSIDKKRMEIEQELGSELSKCFCNGIESGL” here?
Answer: not soluble

Question: Which “soluble on expression in E. coli” value does the source give for “TPDWRVSLRGSLAYNRNKVISLYYTDRLYTSETALTPDYEVGKAYNMLYGLKSLGINPITGLPVFQGADGSEISPTQNPARENFIVLGHSTPPYSGTFNLNFSYRNFDLDMDFYYVFGGIKPYNYSYVRSADSANKNAIQKQLENMWFHRGDEGKIYHSPFYISPANASLQQPNTETVGKSDYLKLAMLSLRYRVPHTFLEKNCHFIKYANIAFQASNLFMITPYKESDPETGSLAGAMQPVLTINLSLTF” here?
Answer: not soluble
